B1: AjLC3 WT probe (dsDNA)
DNA 1: ATATCCTTTTGTCTGTTTTTCGGAAAG
DNA 2: CTTTCCGAAAAACAGACAAAAGGATAT
B2: AjLC3 Mut probe (dsDNA)
DNA 1: ATATCCTTTTGTGACACCTTCGGAAAG
DNA 2: CTTTCCGAAGGTGTCACAAAAGGATAT
B3: AjATG4 WT probe (dsDNA)
DNA 1: TTTACGGCGCCTGTTTACGTCATCAACC
DNA 2: GGTTGATGACGTAAACAGGCGCCGTAAA
B4: AjATG4 Mut probe (dsDNA)
DNA 1: TTTACGGCGCGACAAAACGTCATCAACC
DNA 2: GGTTGATGACGTTTTGTCGCGCCGTAAA

target: AjFoxO (rAjFoxO) (Apostichopus japonicus, UniProt A0A2G8KG36 1-567); test: EMSA

Q: Does B1 bind?
A: binds

Q: Does B2 bind?
A: no binding

Q: Does B3 bind?
A: binds

Q: Does B4 bind?
A: no binding

— paper PMC11705696
